Residue numbers refer to the chain shown, from its start. Names may count otherwise.
T1: orthogonal hCD122 receptor (hoRb), hCD122 with H133D and Y134F (human, UniProt P14784 27-550)
T1 sequence: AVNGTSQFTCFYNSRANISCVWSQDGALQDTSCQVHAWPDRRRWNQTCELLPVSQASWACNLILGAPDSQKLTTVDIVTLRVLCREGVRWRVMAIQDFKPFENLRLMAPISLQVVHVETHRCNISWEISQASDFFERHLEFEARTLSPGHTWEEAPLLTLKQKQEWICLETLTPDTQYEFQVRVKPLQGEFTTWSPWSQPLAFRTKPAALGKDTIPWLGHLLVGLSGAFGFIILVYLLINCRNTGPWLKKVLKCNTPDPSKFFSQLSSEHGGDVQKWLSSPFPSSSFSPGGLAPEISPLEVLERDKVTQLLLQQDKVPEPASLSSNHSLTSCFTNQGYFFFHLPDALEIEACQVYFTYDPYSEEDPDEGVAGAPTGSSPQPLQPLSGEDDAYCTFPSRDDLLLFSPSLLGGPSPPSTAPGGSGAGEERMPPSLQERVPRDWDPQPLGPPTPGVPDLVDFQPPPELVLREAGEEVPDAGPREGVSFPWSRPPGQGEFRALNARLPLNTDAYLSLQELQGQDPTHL

B1: ΔR81, SQVLKA (ligand)
chain: APTSSSTKKTQLQLSQLLVLLKAILNGINNYKNPKLTRMLTFKFYMPKKATELKHLQCLEEELKPLEEVLNLAQSKNFHLPRDLISNINVIVLELKGSETTFMCEYADETATIVEFLNRWITFCQSIISTLT
B2: Δ88N, SQVLKA (ligand)
chain: B1 chain with P81R, R82P, D83R, L84D, I85L, S86I, N87S
B3: R81I, SQVLKA (ligand)
chain: APTSSSTKKTQLQLSQLLVLLKAILNGINNYKNPKLTRMLTFKFYMPKKATELKHLQCLEEELKPLEEVLNLAQSKNFHLIPRDLISNINVIVLELKGSETTFMCEYADETATIVEFLNRWITFCQSIISTLT
B4: I86V, SQVLKA (ligand)
chain: B3 chain with I81R, I86V
B5: R81D, SQVLKA (ligand)
chain: B3 chain with I81D
B6: R81Y, SQVLKA (ligand)
chain: B3 chain with I81Y
B7: L85V, SQVLKA (ligand)
chain: B3 chain with I81R, L85V
B8: N88E, SQVLKA (ligand)
chain: B3 chain with I81R, N88E
B9: ΔL14, SQVLKA (ligand)
chain: APTSSSTKKTQLQSQLLVLLKAILNGINNYKNPKLTRMLTFKFYMPKKATELKHLQCLEEELKPLEEVLNLAQSKNFHLRPRDLISNINVIVLELKGSETTFMCEYADETATIVEFLNRWITFCQSIISTLT
B10: ΔT3, SQVLKA (ligand)
chain: B9 chain with T3S, S6T, T7K, K9T, T10Q, Q11L, L12Q, Q13L

biological target: T1, orthogonal hCD122 receptor (hoRb), …; test: cell-based or functional assay
For Relative Proliferation Fold Change 3F8 1:10 in this document: reference of the scale not given here.
For Relative Proliferation Fold Change 3F8 1:2 in this document: reference of the scale not given here.
For Relative Proliferation Fold Change 3F8 1:50 in this document: reference of the scale not given here.
For Relative Proliferation Fold Change NKL 1:10 in this document: reference of the scale not given here.
For Relative Proliferation Fold Change NKL 1:2 in this document: reference of the scale not given here.
For Relative Proliferation Fold Change NKL 1:50 in this document: reference of the scale not given here.

NKL Ortho Proliferation Signal 1:2 | NKL Ortho Proliferation Signal 1:10 | NKL Ortho Proliferation Signal 1:50 | Relative Proliferation Fold Change NKL 1:2 [fold] | Relative Proliferation Fold Change NKL 1:10 [fold] | Relative Proliferation Fold Change NKL 1:50 [fold] | Binder
62400 | 68800 | 31900 | 4.84 | 4.09 | 2.1 | B1
4610 | 7470 | 6690 | 0.42 | 0.59 | 0.58 | B2
52800 | 58000 | 27300 | 3.84 | 3.85 | 1.92 | B3
39900 | 38000 | 18400 | 3.82 | 2.67 | 1.42 | B4
71800 | 73800 | 44400 | 3.64 | 4.35 | 3.07 | B5
59800 | 77900 | 49500 | 3.64 | 4.64 | 3.43 | B6
56300 | 49600 | 24200 | 3.94 | 3.34 | 1.71 | B7
6410 | 7090 | 6480 | 0.49 | 0.53 | 0.51 | B8
31800 | 23500 | 12200 | 2.38 | 1.6 | 0.86 | B9
60800 | 64600 | 32300 | 4 | 3.73 | 1.99 | B10

biological target: T1, orthogonal hCD122 receptor (hoRb), …; test: cell-based or functional assay; remark: another data set of the same source

3F8 Ortho Proliferation Signal 1:2 [cts/min] | 3F8 Ortho Proliferation Signal 1:10 [cts/min] | 3F8 Ortho Proliferation Signal 1:50 [cts/min] | Relative Proliferation Fold Change 3F8 1:2 [fold] | Relative Proliferation Fold Change 3F8 1:10 [fold] | Relative Proliferation Fold Change 3F8 1:50 [fold] | Binder
28600 | 32200 | 22000 | 46.4 | 39 | 24 | B1
486 | 580 | 666 | 2.59 | 0.79 | 1.33 | B2
40000 | 46000 | 20900 | 55.9 | 48.8 | 49.4 | B3
34000 | 32600 | 15100 | 0.8 | 3.76 | 3.66 | B4
39300 | 30000 | 10400 | 7.51 | 13.6 | 11.5 | B5
35800 | 46000 | 16500 | 4.14 | 16.6 | 17.6 | B6
44300 | 41300 | 18900 | 39.9 | 44.6 | 14.3 | B7
326 | 588 | 850 | 1 | 1.2 | 1.44 | B8
30300 | 24500 | 8130 | 125 | 26.5 | 13.2 | B9
38900 | 34800 | 16000 | 30.5 | 15.1 | 7.52 | B10

From US20210196796A1 (SYNTHEKINE, published 2021)
